In publication PMC3231237:

Tests used:
[1] = target: Case16; experiment: SEC-MALS; sensor at 4 mg/mL, Ca2+-saturated (5 mM CaCl2 added, 1 h); Superdex 200, 50 mM Tris-HCl, 300 mM NaCl, pH 7.4, 1 mM CaCl2; monomer to dimer
[2] = target: Case16; experiment: SEC-MALS; sensor at 16 mg/mL, Ca2+-saturated (5 mM CaCl2 added, 1 h); Superdex 200, 50 mM Tris-HCl, 300 mM NaCl, pH 7.4, 1 mM CaCl2; monomer to dimer
[3] = target: Case12; experiment: SEC-MALS; sensor at 4 mg/mL, Ca2+-saturated (5 mM CaCl2 added, 1 h); Superdex 200, 50 mM Tris-HCl, 300 mM NaCl, pH 7.4, 1 mM CaCl2; monomer to dimer
[4] = target: Case12; experiment: SEC-MALS; sensor at 16 mg/mL, Ca2+-saturated (5 mM CaCl2 added, 1 h); Superdex 200, 50 mM Tris-HCl, 300 mM NaCl, pH 7.4, 1 mM CaCl2; monomer to dimer

| percent dimer [1] [%] | percent dimer [2] [%] | stoichiometry N [2] | percent dimer [3] [%] | percent dimer [4] [%] | stoichiometry N [4] | Substance |
| --- | --- | --- | --- | --- | --- | --- |
| 2 | 26 | 2 | – | – | – | Case16 |
| – | – | – | 3 | 22 | 2 | Case12 |
